The text below walks through data of patent publication US20220017612A1 (TILOS THERAPEUTICS, published 2022).

B1: 20E6_H2L1 (antibody, human IgG1, kappa, V domains shown)
VH: QVQLVQSGAEVKKPGASVKVSCKASGYTFTSYWMHWVRQAPGQGLEWIGRIDPNSGGIKYNEKFKSRVTLTVDKSSSTAYMELSRLRSDDTAVYYCARWDYGGYFDVWGQGTLVTVSS
VL: DIQMTQSPSSLSASVGDRVTITCRASQDITNYLNWYQQKPGKAVKLLIYYTSRLHSGVPSRFSGSGSGTDYTLTISSLQPEDFATYFCQQGDTLPWTFGQGTKLEIKR
B2: N73D_V44P (antibody, human IgG1, kappa, V domains shown)
VH: EVQLVESGGGLVQPGGSLRLSCAASGFTFTDYYMSWVRQAPGKGLEWLGFIRNKPNGYTTEYSASVKGRFTISRDDSQSSLYLQMNSLKTEDTAVYYCARYTGGGYFDYWGQGTLLTVSS
VL: DIQMTQSPSSLSASVGDRLTISCRASQDISNYLNWYQQKPGKTPKLLIYYTSRLHSGVPSRFSGSGSGTDYTLTISSLQPEDVATYFCQQGDTLPWTFGQGTKLEIKR
notes: also called 28G11_H2L3 with HC N73D and LC V44P
B3: S76N_F87Y (antibody, human IgG1, kappa, V domains shown)
VH: EVQLVESGGGLVQPGGSLRLSCAASGFTFTDYYMSWVRQAPGKGLEWLGFIRNKPNGYTTEYSASVKGRFTISRDNSQNSLYLQMNSLKTEDTAVYYCARYTGGGYFDYWGQGTLLTVSS
VL: DIQMTQSPSSLSASVGDRLTISCRASQDISNYLNWYQQKPGKTVKLLIYYTSRLHSGVPSRFSGSGSGTDYTLTISSLQPEDVATYYCQQGDTLPWTFGQGTKLEIKR
notes: also called 28G11_H2L3 with HC S76N and LC F87Y
B4: T30S_V44P (antibody, human IgG1, kappa, V domains shown)
VH: EVQLVESGGGLVQPGGSLRLSCAASGFTFSDYYMSWVRQAPGKGLEWLGFIRNKPNGYTTEYSASVKGRFTISRDNSQSSLYLQMNSLKTEDTAVYYCARYTGGGYFDYWGQGTLLTVSS
VL: DIQMTQSPSSLSASVGDRLTISCRASQDISNYLNWYQQKPGKTPKLLIYYTSRLHSGVPSRFSGSGSGTDYTLTISSLQPEDVATYFCQQGDTLPWTFGQGTKLEIKR
notes: also called 28G11_H2L3 with HC T30S and LC V44P
B5: T30S_T43V (antibody, human IgG1, kappa, V domains shown)
VH: EVQLVESGGGLVQPGGSLRLSCAASGFTFSDYYMSWVRQAPGKGLEWLGFIRNKPNGYTTEYSASVKGRFTISRDNSQSSLYLQMNSLKTEDTAVYYCARYTGGGYFDYWGQGTLLTVSS
VL: DIQMTQSPSSLSASVGDRLTISCRASQDISNYLNWYQQKPGKVVKLLIYYTSRLHSGVPSRFSGSGSGTDYTLTISSLQPEDVATYFCQQGDTLPWTFGQGTKLEIKR
notes: also called 28G11_H2L3 with HC T30S and LC T43V
B6: Q75K_L19V (antibody, human IgG1, kappa)
heavy: not shown
light: DIQMTQSPSSLSASVGDRVTISCRASQDISNYLNWYQQKPGKTVKLLIYYTSRLHSGVPSRFSGSGSGTDYTLTISSLQPEDVATYFCQQGDTLPWTFGQGTKLEIKRTVAAPSVFIFPPSDEQLKSGTASVVCLLNNFYPREAKVQWKVDNALQSGNSQESVTEQDSKDSTYSLSSTLTLSKADYEKHKVYACEVTHQGLSSPVTKSFNRGEC
notes: also called 28G11_H2L3 with HC Q75K and LC L19V
B7: Q75K_T43V (antibody, human IgG1, kappa, V domains shown)
VH: EVQLVESGGGLVQPGGSLRLSCAASGFTFTDYYMSWVRQAPGKGLEWLGFIRNKPNGYTTEYSASVKGRFTISRDNSKSSLYLQMNSLKTEDTAVYYCARYTGGGYFDYWGQGTLLTVSS
VL: DIQMTQSPSSLSASVGDRLTISCRASQDISNYLNWYQQKPGKVVKLLIYYTSRLHSGVPSRFSGSGSGTDYTLTISSLQPEDVATYFCQQGDTLPWTFGQGTKLEIKR
notes: also called 28G11_H2L3 with HC Q75K and LC T43V
B8: Q75K_WT (antibody, human IgG1, kappa)
heavy: not shown
light: DIQMTQSPSSLSASVGDRLTISCRASQDISNYLNWYQQKPGKTVKLLIYYTSRLHSGVPSRFSGSGSGTDYTLTISSLQPEDVATYFCQQGDTLPWTFGQGTKLEIKRTVAAPSVFIFPPSDEQLKSGTASVVCLLNNFYPREAKVQWKVDNALQSGNSQESVTEQDSKDSTYSLSSTLTLSKADYEKHKVYACEVTHQGLSSPVTKSFNRGEC
notes: also called 28G11_H2L3 with HC Q75K
B9: S76N_V44P (antibody, human IgG1, kappa, V domains shown)
VH: EVQLVESGGGLVQPGGSLRLSCAASGFTFTDYYMSWVRQAPGKGLEWLGFIRNKPNGYTTEYSASVKGRFTISRDNSQNSLYLQMNSLKTEDTAVYYCARYTGGGYFDYWGQGTLLTVSS
VL: DIQMTQSPSSLSASVGDRLTISCRASQDISNYLNWYQQKPGKTPKLLIYYTSRLHSGVPSRFSGSGSGTDYTLTISSLQPEDVATYFCQQGDTLPWTFGQGTKLEIKR
notes: also called 28G11_H2L3 with HC S76N and LC V44P
B10: S76N_T43V (antibody, human IgG1, kappa, V domains shown)
VH: EVQLVESGGGLVQPGGSLRLSCAASGFTFTDYYMSWVRQAPGKGLEWLGFIRNKPNGYTTEYSASVKGRFTISRDNSQNSLYLQMNSLKTEDTAVYYCARYTGGGYFDYWGQGTLLTVSS
VL: DIQMTQSPSSLSASVGDRLTISCRASQDISNYLNWYQQKPGKVVKLLIYYTSRLHSGVPSRFSGSGSGTDYTLTISSLQPEDVATYFCQQGDTLPWTFGQGTKLEIKR
notes: also called 28G11_H2L3 with HC S76N and LC T43V
B11: T30S_F87Y (antibody, human IgG1, kappa, V domains shown)
VH: EVQLVESGGGLVQPGGSLRLSCAASGFTFSDYYMSWVRQAPGKGLEWLGFIRNKPNGYTTEYSASVKGRFTISRDNSQSSLYLQMNSLKTEDTAVYYCARYTGGGYFDYWGQGTLLTVSS
VL: DIQMTQSPSSLSASVGDRLTISCRASQDISNYLNWYQQKPGKTVKLLIYYTSRLHSGVPSRFSGSGSGTDYTLTISSLQPEDVATYYCQQGDTLPWTFGQGTKLEIKR
notes: also called 28G11_H2L3 with HC T30S and LC F87Y
B12: Q75K_V44P (antibody, human IgG1, kappa, V domains shown)
VH: EVQLVESGGGLVQPGGSLRLSCAASGFTFTDYYMSWVRQAPGKGLEWLGFIRNKPNGYTTEYSASVKGRFTISRDNSKSSLYLQMNSLKTEDTAVYYCARYTGGGYFDYWGQGTLLTVSS
VL: DIQMTQSPSSLSASVGDRLTISCRASQDISNYLNWYQQKPGKTPKLLIYYTSRLHSGVPSRFSGSGSGTDYTLTISSLQPEDVATYFCQQGDTLPWTFGQGTKLEIKR
notes: also called 28G11_H2L3 with HC Q75K and LC V44P
B13: T30S_Y71F (antibody, human IgG1, kappa, V domains shown)
VH: EVQLVESGGGLVQPGGSLRLSCAASGFTFSDYYMSWVRQAPGKGLEWLGFIRNKPNGYTTEYSASVKGRFTISRDNSQSSLYLQMNSLKTEDTAVYYCARYTGGGYFDYWGQGTLLTVSS
VL: DIQMTQSPSSLSASVGDRLTISCRASQDISNYLNWYQQKPGKTVKLLIYYTSRLHSGVPSRFSGSGSGTDFTLTISSLQPEDVATYFCQQGDTLPWTFGQGTKLEIKR
notes: also called 28G11_H2L3 with HC T30S and LC Y71F
B14: S76N_WT (antibody, human IgG1, kappa, V domains shown)
VH: EVQLVESGGGLVQPGGSLRLSCAASGFTFTDYYMSWVRQAPGKGLEWLGFIRNKPNGYTTEYSASVKGRFTISRDNSQNSLYLQMNSLKTEDTAVYYCARYTGGGYFDYWGQGTLLTVSS
VL: DIQMTQSPSSLSASVGDRLTISCRASQDISNYLNWYQQKPGKTVKLLIYYTSRLHSGVPSRFSGSGSGTDYTLTISSLQPEDVATYFCQQGDTLPWTFGQGTKLEIKR
notes: also called 28G11_H2L3 with HC S76N
B15: N73D_Y71F (antibody, human IgG1, kappa, V domains shown)
VH: EVQLVESGGGLVQPGGSLRLSCAASGFTFTDYYMSWVRQAPGKGLEWLGFIRNKPNGYTTEYSASVKGRFTISRDDSQSSLYLQMNSLKTEDTAVYYCARYTGGGYFDYWGQGTLLTVSS
VL: DIQMTQSPSSLSASVGDRLTISCRASQDISNYLNWYQQKPGKTVKLLIYYTSRLHSGVPSRFSGSGSGTDFTLTISSLQPEDVATYFCQQGDTLPWTFGQGTKLEIKR
notes: also called 28G11_H2L3 with HC N73D and LC Y71F

T1 sequence (P01137 30-390 limits assumed): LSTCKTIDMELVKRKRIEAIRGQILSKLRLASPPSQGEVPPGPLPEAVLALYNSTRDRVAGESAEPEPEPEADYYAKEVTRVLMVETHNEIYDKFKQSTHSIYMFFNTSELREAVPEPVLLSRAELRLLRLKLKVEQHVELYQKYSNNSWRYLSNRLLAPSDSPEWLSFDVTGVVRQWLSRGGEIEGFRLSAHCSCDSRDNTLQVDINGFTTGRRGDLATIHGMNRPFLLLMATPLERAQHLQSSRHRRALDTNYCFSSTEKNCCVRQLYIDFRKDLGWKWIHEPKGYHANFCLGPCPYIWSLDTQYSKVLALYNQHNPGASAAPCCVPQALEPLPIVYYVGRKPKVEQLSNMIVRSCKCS

The first test addresses T1, fusion protein of a human IgG1 Fc domain and human LAP-TGFβ1 (human, UniProt P01137 30-390).
T1 construct: printed both as Fc-huB1 and LAP-TGFβ-Fc; also called Fc-huB1; Fc-human LAP
The experiment in a line: BLI (Octet).
As to B1, the affinity, expressed as Kd, was 0.48 nM; the koff came to 0.000747 s⁻¹; the on-rate constant (kon) turned out to be 1.57e+06 M⁻¹ s⁻¹.

The target in the next test is T2, human LAP-TGFβ1 overexpressed on cells (human, UniProt P01137 30-390).
T2 construct: HT1080 or P3U1 cells overexpressing wild-type human LAP-TGFβ1; also called HT1080-huB1; HT1080-hβ1
T2 sequence (P01137 30-390): as the sequence (P01137 30-390 limits assumed) above
The experiment in a line: flow cytometry; black bar HT1080-huB1, grey bar HT1080.
As for B2, the binding result is “no binding”. On the same count and under the same terms, then B3, with “binds”; and B4, with “binds”. For B5, the binding result is recorded as “binds”. Still for that read-out and setting: then B6, with “binds”. Still for that read-out and setting: the entry for B7 is “binds”. On the same count and under the same terms, the entry for B8 is “binds”; for B9 it is “binds”. Consider B10, for which the binding result is given as “binds”.

On to B11, for which the binding result is given as “binds”. Still for that read-out and setting: the entry for B12 is “binds”; for B13 it is “no binding”; for B14 it is “binds”. The same measure, in the same setting: the entry for B15 is “no binding”.
